Experiments:
GLP-2R K414^7.35A = target: T1, GLP-2R K414^7.35A (Homo sapiens, UniProt O95838, K414A); experiment: cAMP accumulation, K414^7.35A; assay type: cell-based; design: GLP-2R (1-553) (WT); expressed in transfected cells; host or cells: HEK 293T; details: Table S3, K414A; HEK 293T, 30 min, RT; mean ± SEM, n ≥ 3 in duplicate; read-out: cAMP Emax (% WT)
T1 sequence (O95838 1-553 K414A): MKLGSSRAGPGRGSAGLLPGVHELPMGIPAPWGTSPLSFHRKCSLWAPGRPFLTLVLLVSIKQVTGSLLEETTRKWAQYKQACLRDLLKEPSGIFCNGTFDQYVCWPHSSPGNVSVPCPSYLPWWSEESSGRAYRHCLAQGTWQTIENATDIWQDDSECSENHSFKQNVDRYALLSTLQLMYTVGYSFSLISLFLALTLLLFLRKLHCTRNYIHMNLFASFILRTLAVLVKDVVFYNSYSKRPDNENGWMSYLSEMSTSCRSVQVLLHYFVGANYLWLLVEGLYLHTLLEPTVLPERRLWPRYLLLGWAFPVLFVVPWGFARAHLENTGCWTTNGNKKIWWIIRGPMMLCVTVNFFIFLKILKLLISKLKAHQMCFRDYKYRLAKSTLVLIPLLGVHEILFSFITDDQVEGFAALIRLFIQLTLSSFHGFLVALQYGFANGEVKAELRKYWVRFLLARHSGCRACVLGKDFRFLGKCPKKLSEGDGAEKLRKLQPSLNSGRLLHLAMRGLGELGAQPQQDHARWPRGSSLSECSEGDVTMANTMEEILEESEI
Experimental: HEK 293T cells were cultured in Dulbecco’s Modified Eagle’s Medium (DMEM) (Gibco, Waltham, USA) supplemented with 10% (v/v) fetal bovine serum (FBS) (Gibco) and 1% (v/v) sodium pyruvate (Gibco) at 37 °C, 5% CO2 in a humidified incubator. They were seeded onto 6-well cell culture plates and transiently transfected with different GLP-2R constructs using Lipofectamine 2000 transfection reagent (Invitrogen, Carlsbad, CA, USA). After 24 h, the transfected cells were seeded onto 384-well microtiter plates (3000 cells per well) in HBSS supplemented with 5 mM HEPES, 0.1% (w/v) bovine serum albumin (BSA) and 0.5 mM 3-isobutyl-1- methylxanthine, and stimulated with increasing concentrations of GLP-2 for 30 min at RT. Eu and Ulight were diluted by cAMP detection buffer and added to the plates separately to terminate the reaction. Plates were incubated at RT for 60 min before measuring the fluorescence intensity at 620 nm and […] by an EnVision multilabel plate reader (PerkinElmer, Boston, USA).

[1] = target: GLP-2R N247^ECL1A (human) (UniProt O95838); experiment: radioligand binding; competition on transiently transfected COS-7 cells: unlabeled teduglutide 0.1 nM to 1 μM against 10–15 pM [125I]GLP-2(1–33, M10Y); 4 h, 4 °C; 50 mM HEPES pH 7.4, 1 mM CaCl2, 5 mM MgCl2, 0.5% BSA; three-parameter logistic fit
[2] = target: GLP-2R R344^5.40A (human) (UniProt O95838); experiment: as above
[3] = target: GLP-2R W249^ECL1A (human) (UniProt O95838); experiment: as above
[4] = target: GLP-2R W340^5.36A (human) (UniProt O95838); experiment: as above
[5] = target: GLP-2R Y182^1.43A (human) (UniProt O95838); experiment: as above
[6] = target: GLP-2R Y252^ECL1A (human) (UniProt O95838); experiment: as above
[7] = target: Human GLP-2R WT (1–553) (human) (UniProt O95838); experiment: as above

Row | Molecule | Emax (GLP-2R K414^7.35A) | % Binding of WT [1] | % Binding of WT [2] | % Binding of WT [3] | % Binding of WT [4] | % Binding of WT [5] | % Binding of WT [6] | % Binding of WT [7]
1 | CC[C@H](C)[C@H](NC(=O)[C@H](Cc1ccccc1)NC(=O)[C@H](CC(=O)O)NC(=O)[C@H](CCCNC(=N)N)NC(=O)[C@H](C)NC(=O)[C@H](C)NC(=O)[C@H](CC(C)C)NC(=O)[C@H](CC(N)=O)NC(=O)[C@H](CC(=O)O)NC(=O)[C@H](CC(C)C)NC(=O)[C@@H](NC(=O)[C@@H](NC(=O)[C@H](CC(N)=O)NC(=O)[C@H](CCSC)NC(=O)[C@H](CCC(=O)O)NC(=O)[C@H](CC(=O)O)NC(=O)[C@H](CO)NC(=O)[C@H](Cc1ccccc1)NC(=O)[C@H](CO)NC(=O)CNC(=O)[C@H](CC(=O)O)NC(=O)[C@H](C)NC(=O)[C@@H](N)Cc1c[nH]cn1)[C@@H](C)O)[C@@H](C)CC)C(=O)N[C@@H](CC(N)=O)C(=O)N[C@@H](Cc1c[nH]c2ccccc12)C(=O)N[C@@H](CC(C)C)C(=O)N[C@H](C(=O)N[C@@H](CCC(N)=O)C(=O)N[C@H](C(=O)N[C@@H](CCCCN)C(=O)N[C@H](C(=O)N[C@H](C(=O)N[C@@H](CC(=O)O)C(=O)O)[C@@H](C)O)[C@@H](C)CC)[C@@H](C)O)[C@@H](C)CC [Human GLP-2 (1–33)] | 110 ± 3.3% | – | – | – | – | – | – | –
2 | [^125I]GLP-2(1–33, M10Y) (peptide) | – | 135% | 3.5% | 2.9% | 8.6% | 3.2% | 6.3% | 99.7%

From PMC7785020, “A unique hormonal recognition feature of the human glucagon-like peptide-2 receptor” (Cell Research, 2020)
